Data: patent publication US20250206809A1 (UNIVERSITY OF MASSACHUSETTS, published 2025)

B1: VHH antibody 2R23 (monomeric nanobody) (VHH)
VHH: QVQLQESGGGLVQAGGSLRLSCAASGYIFWSYGYMGWYRQAPGKERELVATISRGGTTNYADSVKGRFTISRDNAKNTVYLQMNSLKPEDTAVYYCAAGRYAFGYFKYWGQGTQVTVSS
notes: Yeast-library clone, expressed in the E. coli periplasm
B2: VHH antibody 2R215 (monomeric nanobody) (VHH)
VHH: QVQLQESGGGLVQAGGSLRLSCAASGNIFQDAEMGWYRQAPGKEREFVATIAYGGNTNYADSVKGRFTISRDNAKNTVYLQMNSLKPEDTAVYYCAVYTGVYYDRTTGGYVAFEYWGQGTQVTVSS
notes: Yeast-library clone, expressed in the E. coli periplasm and purified by Ni-NTA; also called monomeric 2R215; monomeric VHH 2R215
B3: VHH antibody 1H4 (monomeric nanobody) (VHH)
VHH: EVQLVESGGGLVQAGGSLRLSCAASSRTFNHYNIGWFRQAPGKEREFAAAITWNGRSTLYADSVKGRFTISRDNAKNTVYLQMNSLKPEDTAVYYCATLTTWEHKWEYNSQGQGTQVTVSS
B4: VHH antibody 1D7 (monomeric nanobody) (VHH)
VHH: EVQLVESGGGLVQAGGSLTLSCAASERTFSYYVMAWFRQAPGKEREFVAGISMSGDSTKYADSVKGRFTISRDNAENTGYLQMNGLKPEDTAVYYCAADRDIRGNFRSWGRGTQVTVSS

How the values were obtained:
[1] = target: T1, CFA/I (adhesin CfaE) on ETEC strain H10407 (enterotoxigenic Escherichia coli strain …, UniProt P25734 1-360); assay: cell-based or functional assay
T1 sequence (looked up): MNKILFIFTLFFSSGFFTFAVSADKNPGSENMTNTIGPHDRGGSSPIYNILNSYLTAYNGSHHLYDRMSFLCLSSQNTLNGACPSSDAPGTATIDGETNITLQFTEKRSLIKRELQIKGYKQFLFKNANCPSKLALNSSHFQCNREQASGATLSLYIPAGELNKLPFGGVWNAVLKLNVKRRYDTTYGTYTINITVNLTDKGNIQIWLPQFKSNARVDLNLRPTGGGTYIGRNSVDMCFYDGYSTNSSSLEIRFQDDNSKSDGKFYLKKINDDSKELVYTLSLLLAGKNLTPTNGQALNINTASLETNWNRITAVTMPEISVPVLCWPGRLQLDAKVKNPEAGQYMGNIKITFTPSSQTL

[2] = target: CS4 on an ETEC strain (enterotoxigenic Escherichia coli); assay: cell-based or functional assay
[3] = target: CS14 on an ETEC strain (enterotoxigenic Escherichia coli); assay: cell-based or functional assay
[4] = target: CS1 on an ETEC strain (enterotoxigenic Escherichia coli); assay: cell-based or functional assay
[5] = target: CS17 on an ETEC strain (enterotoxigenic Escherichia coli); assay: cell-based or functional assay
[6] = target: CS19 on an ETEC strain (enterotoxigenic Escherichia coli); assay: cell-based or functional assay
[7] = target: CS2 on an ETEC strain (enterotoxigenic Escherichia coli); assay: cell-based or functional assay
[8] = target: CS3 on an ETEC strain (enterotoxigenic Escherichia coli); assay: cell-based or functional assay
[9] = target: CS5 on an ETEC strain (enterotoxigenic Escherichia coli); assay: cell-based or functional assay
[10] = target: CS6 on an ETEC strain (enterotoxigenic Escherichia coli); assay: cell-based or functional assay
[11] = target: CS21 on an ETEC strain (enterotoxigenic Escherichia coli); assay: cell-based or functional assay
[12] = target: T2, MBP-CfaE-N (recombinant N-terminal adhesin domain of CfaE fused to an MBP tag) (enterotoxigenic Escherichia coli, UniProt P0AEX9 27-392 = MBP, Biotinylated for SPR; FITC or Alexa Fluor labelled for yeast flow cytometry.); assay: SPR, Biacore T200, CfaE on CM5 chip, VHH injected, 25 °C, 1:1 model
T2 construct: It was used unlabelled in ELISA, 'biotinylated' on the chip in the SPR methods, and FITC/Alexa-labelled in yeast flow cytometry; also called recombinant N-terminal truncated CfaE protein; N-terminal truncation of CfaE; not shown: MBP tag and linker of vector pMAL-C5X, and the donor strand complement
T2 sequence: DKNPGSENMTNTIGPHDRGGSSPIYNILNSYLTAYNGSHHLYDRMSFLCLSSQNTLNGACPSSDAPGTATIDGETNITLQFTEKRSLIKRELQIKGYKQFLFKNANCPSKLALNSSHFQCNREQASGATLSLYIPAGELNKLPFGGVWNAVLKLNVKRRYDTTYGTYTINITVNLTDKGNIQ

[13] = target: T3, CS14; assay: ELISA: plate coated with the recombinant antigen, purified VHH titrated (y axis printed as absorbance at 405, the text says OD450)
T3 construct: not the CS14 on an ETEC strain; also called recombinant CS14; N-terminal adhesin domain of CsuD with MBP tag; not shown: MBP tag from vector pMAL-C5X, with any linker or donor-strand complement
T3 chain: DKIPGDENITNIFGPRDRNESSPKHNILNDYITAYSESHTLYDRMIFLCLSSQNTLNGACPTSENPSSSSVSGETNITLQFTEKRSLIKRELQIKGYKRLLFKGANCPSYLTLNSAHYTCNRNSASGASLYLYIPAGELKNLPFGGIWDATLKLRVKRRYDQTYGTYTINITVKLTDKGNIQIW

[14] = target: T4, CS19; assay: as above
T4 construct: not the CS19 on an ETEC strain; also called recombinant CS19; N-terminal adhesin domain of CsdD with MBP tag; not shown: MBP tag from vector pMAL-C5X, with any linker or donor-strand complement
T4 chain: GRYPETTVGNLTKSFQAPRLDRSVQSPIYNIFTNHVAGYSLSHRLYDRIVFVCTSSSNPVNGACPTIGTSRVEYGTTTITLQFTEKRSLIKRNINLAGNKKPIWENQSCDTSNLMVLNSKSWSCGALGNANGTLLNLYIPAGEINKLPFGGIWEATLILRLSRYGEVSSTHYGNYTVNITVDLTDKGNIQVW

Binder | MRHA IC100 [1] [µg/mL] | MRHA IC100 [2] [µg/mL] | MRHA IC100 [3] [µg/mL] | MRHA IC100 [4] [µg/mL] | MRHA IC100 [5] [µg/mL] | MRHA IC100 [6] [µg/mL] | MRHA IC100 [7] [µg/mL] | MRHA IC100 [8] [µg/mL] | MRHA IC100 [9] [µg/mL] | MRHA IC100 [10] [µg/mL] | MRHA IC100 [11] [µg/mL] | Kd [12] [µM] | koff [12] [s⁻¹] | kon [12] [M⁻¹ s⁻¹] | binding result [13] | binding result [14]
B1 | 50 | 25 | 25 | 200 | 6.25 | 200 | 200 | 100 | 12.5 | 12.5 | 25 | 0.00906 | 64.6 | 7.13e+09 | binds | –
B2 | 25 | 100 | 200 | 200 | 6.25 | 200 | 6.25 | 100 | 6.25 | 25 | 25 | – | – | – | – | binds
B3 | 200 | 25 | 100 | 100 | 6.25 | 100 | 100 | 100 | 3.12 | 25 | 25 | – | – | – | – | –
B4 | 100 | 200 | 100 | 50 | 6.25 | 100 | 50 | 50 | 3.12 | 12.5 | 25 | 0.0177 | 0.0311 | 1.75e+06 | – | –
